Measured values from US20160264649A1.

Tests used:
Experiment in all cases: cell-based or functional assay
[1] = biological target: HIV-1 MGRM-G-025 Env (HIV-1)
[2] = biological target: HIV-1 MGRM-D-028 Env (HIV-1)
[3] = biological target: HIV-1 MGRM-D-011 Env (HIV-1)
[4] = biological target: HIV-1 MGRM-D-019 Env (HIV-1)
[5] = biological target: HIV-1 MGRM-G-006 Env (HIV-1)
[6] = biological target: HIV-1 JRFL Env on pseudovirus (HIV-1)
[7] = biological target: HIV-1 MGRM-AE-006 Env (HIV-1)
[8] = biological target: HIV-1 92BR020 Env on pseudovirus (HIV-1)
[9] = biological target: HIV-1 MGRM-AG-001 Env (HIV-1)
[10] = biological target: HIV-1 93TH305 Env on pseudovirus (HIV-1)
[11] = biological target: HIV-1 MGRM-D-022 Env (HIV-1)
[12] = biological target: HIV-1 MGRM-F1-004 Env (HIV-1)
[13] = biological target: HIV-1 MGRM-C-023 Env on pseudovirus (HIV-1)
[14] = biological target: HIV-1 92UG001 Env (HIV-1)
[15] = biological target: HIV-1 MGRM-C-019 Env on pseudovirus (HIV-1)
[16] = biological target: HIV-1 6535.3 (Acute) Env on pseudovirus (HIV-1)
[17] = biological target: HIV-1 MGRM-G-028 Env (HIV-1)
[18] = biological target: HIV-1 MGRM-D-008 Env (HIV-1)
[19] = biological target: HIV-1 THR0.18 (Acute) Env on pseudovirus (HIV-1)
[20] = biological target: HIV-1 MGRM-G-014 Env (HIV-1)
[21] = biological target: HIV-1 92RW020 Env (HIV-1)
[22] = biological target: HIV-1 MGRM-G-011 Env (HIV-1)
[23] = biological target: HIV-1 MGRM-D-021 Env (HIV-1)
[24] = biological target: HIV-1 MGRM-C-005 Env on pseudovirus (HIV-1)
[25] = biological target: HIV-1 MGRM-F1-015 Env (HIV-1)
[26] = biological target: aMLV envelope (negative control pseudovirus)
[27] = biological target: HIV-1 MGRM-C-006 Env on pseudovirus (HIV-1)
HIV-1 APV-13 Env (HIV-1) = biological target: HIV-1 APV-13 Env (HIV-1)
[28] = biological target: HIV-1 MGRM-AG-009 Env (HIV-1)
[29] = biological target: HIV-1 MGRM-F1-006 Env (HIV-1)
[30] = biological target: HIV-1 MGRM-C-012 Env on pseudovirus (HIV-1)
[31] = biological target: HIV-1 TRJ0.58 (Acute) Env on pseudovirus (HIV-1)
[32] = biological target: HIV-1 92UG046 Env (HIV-1)
[33] = biological target: HIV-1 MGRM-D-002 Env (HIV-1)
[34] = biological target: HIV-1 MGRM-C-015 Env on pseudovirus (HIV-1)
[35] = biological target: HIV-1 NL43 Env on pseudovirus (HIV-1)
[36] = biological target: HIV-1 MGRM-AE-002 Env (HIV-1)
[37] = biological target: HIV-1 MGRM-C-017 Env on pseudovirus (HIV-1)
HIV-1 APV-6 Env (HIV-1) = biological target: HIV-1 APV-6 Env (HIV-1)
[38] = biological target: HIV-1 MGRM-C-008 Env on pseudovirus (HIV-1)
[39] = biological target: HIV-1 MGRM-G-004 Env (HIV-1)
HIV-1 NL43 Env (HIV-1) = biological target: HIV-1 NL43 Env (HIV-1)
[40] = biological target: HIV-1 MGRM-C-020 Env on pseudovirus (HIV-1)
[41] = biological target: HIV-1 IAVI-C3 Env (HIV-1)
[42] = biological target: HIV-1 MGRM-AG-013 Env (HIV-1)
[43] = biological target: HIV-1 MGRM-D-004 Env (HIV-1)
[44] = biological target: HIV-1 MGRM-F1-010 Env (HIV-1)
[45] = biological target: HIV-1 MGRM-AG-005 Env (HIV-1)
[46] = biological target: HIV-1 92UG005 Env (HIV-1)
[47] = biological target: HIV-1 MGRM-C-001 Env on pseudovirus (HIV-1)
[48] = biological target: HIV-1 MGRM-D-020 Env (HIV-1)
[49] = biological target: HIV-1 MGRM-C-014 Env on pseudovirus (HIV-1)

1443_C16 (PG16) (TCN-116) (antibody), sequence (VH): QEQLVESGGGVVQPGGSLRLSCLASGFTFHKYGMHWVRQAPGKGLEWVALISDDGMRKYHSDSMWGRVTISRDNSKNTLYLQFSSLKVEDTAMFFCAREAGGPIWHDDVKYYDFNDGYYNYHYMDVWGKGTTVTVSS
1443_C16 (PG16) (TCN-116) (antibody), sequence (VL): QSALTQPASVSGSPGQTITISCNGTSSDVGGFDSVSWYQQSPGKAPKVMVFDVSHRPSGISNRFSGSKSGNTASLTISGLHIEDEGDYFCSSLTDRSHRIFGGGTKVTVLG

1443_C16 (PG16) (TCN-116) (antibody)
IC50 (µg/ml), pseudovirus neutralization [1]: > 50 µg/mL
IC50 (µg/ml), pseudovirus neutralization [2]: > 50 µg/mL
IC50 (µg/ml), pseudovirus neutralization [3]: 0.01 µg/mL
IC50 (µg/ml), pseudovirus neutralization [4]: 0.01 µg/mL
IC50 (µg/ml), pseudovirus neutralization [5]: 2.42 µg/mL
IC50 [6]: > 50 µg/mL
IC50 (µg/ml), pseudovirus neutralization [7]: 0.03 µg/mL
IC50 [8]: > 50 µg/mL
IC50 (µg/ml), pseudovirus neutralization [9]: 0.03 µg/mL
IC50 [10]: 19.3 µg/mL
IC50 (µg/ml), pseudovirus neutralization [11]: > 50 µg/mL
IC50 (pseudovirus neutralization) [12]: 0.43 µg/mL
IC50 [13]: 0.09 µg/mL
IC50 (µg/ml), pseudovirus neutralization [14]: > 50 µg/mL
IC50 [15]: 0.002 µg/mL
IC50 [16]: 36.9 µg/mL
IC50 (µg/ml), pseudovirus neutralization [17]: 3.09 µg/mL
IC50 (µg/ml), pseudovirus neutralization [18]: > 50 µg/mL
IC50 [19]: 1.34 µg/mL
IC50 (µg/ml), pseudovirus neutralization [20]: 6.98 µg/mL
IC50, TZM-bl pseudovirus neutralization [21]: 0.09 µg/mL
neutralization IC50 [21]: 0.004 µg/mL
neutralization IC90 [21]: > 50 µg/mL
IC50 (µg/ml), pseudovirus neutralization [22]: 0.04 µg/mL
IC50 (µg/ml), pseudovirus neutralization [23]: > 50 µg/mL
IC50 [24]: 2.55 µg/mL
IC50 (pseudovirus neutralization) [25]: > 50 µg/mL
IC50 (pseudovirus neutralization) [26]: > 50 µg/mL
IC50 [27]: 2.62 µg/mL
neutralization IC50 (HIV-1 APV-13 Env (HIV-1)): > 50 µg/mL
neutralization IC90 (HIV-1 APV-13 Env (HIV-1)): > 50 µg/mL
IC50 (µg/ml), pseudovirus neutralization [28]: > 50 µg/mL
IC50 (pseudovirus neutralization) [29]: 0.27 µg/mL
IC50 [30]: 0.48 µg/mL
IC50 [31]: 1.16 µg/mL
IC50 (µg/ml), pseudovirus neutralization [32]: 1.42 µg/mL
IC50 (µg/ml), pseudovirus neutralization [33]: 0.01 µg/mL
IC50 [34]: 0.26 µg/mL
IC50 [35]: 0.02 µg/mL
IC50 (µg/ml), pseudovirus neutralization [36]: 0.01 µg/mL
IC50 [37]: 1.8 µg/mL
neutralization IC50 (HIV-1 APV-6 Env (HIV-1)): 0.08 µg/mL
neutralization IC90 (HIV-1 APV-6 Env (HIV-1)): 44.3 µg/mL
IC50 [38]: > 50 µg/mL
IC50 (µg/ml), pseudovirus neutralization [39]: > 50 µg/mL
neutralization IC50 (HIV-1 NL43 Env (HIV-1)): < 0.0025 µg/mL
neutralization IC90 (HIV-1 NL43 Env (HIV-1)): > 50 µg/mL
IC50 [40]: > 50 µg/mL
neutralization IC50 [41]: 14.8 µg/mL
neutralization IC90 [41]: > 50 µg/mL
IC50 (µg/ml), pseudovirus neutralization [42]: 0.31 µg/mL
IC50 (µg/ml), pseudovirus neutralization [43]: 0.01 µg/mL
IC50 (pseudovirus neutralization) [44]: 0.01 µg/mL
IC50 (µg/ml), pseudovirus neutralization [45]: > 50 µg/mL
IC50 (µg/ml), pseudovirus neutralization [46]: > 50 µg/mL
neutralization IC50 [46]: > 50 µg/mL
neutralization IC90 [46]: > 50 µg/mL
IC50 [47]: 16.8 µg/mL
IC50 (µg/ml), pseudovirus neutralization [48]: 16.3 µg/mL
IC50 [49]: > 50 µg/mL

1495_C14 (PGC14) (antibody)
IC50 (µg/ml), pseudovirus neutralization [1]: > 50 µg/mL
IC50 (µg/ml), pseudovirus neutralization [2]: > 50 µg/mL
IC50 (µg/ml), pseudovirus neutralization [3]: > 50 µg/mL
IC50 (µg/ml), pseudovirus neutralization [4]: > 50 µg/mL
IC50 (µg/ml), pseudovirus neutralization [5]: > 50 µg/mL
IC50 [6]: > 50 µg/mL
IC50 (µg/ml), pseudovirus neutralization [7]: > 50 µg/mL
IC50 [8]: 4 µg/mL
IC50 (µg/ml), pseudovirus neutralization [9]: > 50 µg/mL
IC50 [10]: 6 µg/mL
IC50 (µg/ml), pseudovirus neutralization [11]: > 50 µg/mL
IC50 (pseudovirus neutralization) [12]: > 50 µg/mL
IC50 [13]: > 50 µg/mL
IC50 (µg/ml), pseudovirus neutralization [14]: > 50 µg/mL
IC50 [15]: 12 µg/mL
IC50 [16]: 35 µg/mL
IC50 (µg/ml), pseudovirus neutralization [17]: > 50 µg/mL
IC50 (µg/ml), pseudovirus neutralization [18]: > 50 µg/mL
IC50 [19]: > 50 µg/mL
IC50 (µg/ml), pseudovirus neutralization [20]: > 50 µg/mL
neutralization IC50 [21]: 28.6 µg/mL
IC50 (µg/ml), pseudovirus neutralization [22]: > 50 µg/mL
IC50 (µg/ml), pseudovirus neutralization [23]: > 50 µg/mL
IC50 [24]: > 50 µg/mL
IC50 (pseudovirus neutralization) [25]: > 50 µg/mL
IC50 (pseudovirus neutralization) [26]: > 50 µg/mL
IC50 [27]: > 50 µg/mL
neutralization IC50 (HIV-1 APV-13 Env (HIV-1)): > 50 µg/mL
IC50 (µg/ml), pseudovirus neutralization [28]: > 50 µg/mL
IC50 (pseudovirus neutralization) [29]: > 50 µg/mL
IC50 [30]: > 50 µg/mL
IC50 [31]: > 50 µg/mL
IC50 (µg/ml), pseudovirus neutralization [32]: > 50 µg/mL
IC50 (µg/ml), pseudovirus neutralization [33]: 29 µg/mL
IC50 [34]: > 50 µg/mL
IC50 [35]: 40 µg/mL
IC50 (µg/ml), pseudovirus neutralization [36]: > 50 µg/mL
IC50 [37]: > 50 µg/mL
neutralization IC50 (HIV-1 APV-6 Env (HIV-1)): 7.41 µg/mL
IC50 [38]: > 50 µg/mL
IC50 (µg/ml), pseudovirus neutralization [39]: > 50 µg/mL
neutralization IC50 (HIV-1 NL43 Env (HIV-1)): 0.373 µg/mL
IC50 [40]: > 50 µg/mL
neutralization IC50 [41]: > 50 µg/mL
IC50 (µg/ml), pseudovirus neutralization [42]: > 50 µg/mL
IC50 (µg/ml), pseudovirus neutralization [43]: > 50 µg/mL
IC50 (pseudovirus neutralization) [44]: > 50 µg/mL
IC50 (µg/ml), pseudovirus neutralization [45]: > 50 µg/mL
IC50 (µg/ml), pseudovirus neutralization [46]: > 50 µg/mL
neutralization IC50 [46]: > 50 µg/mL
IC50 [47]: > 50 µg/mL
IC50 (µg/ml), pseudovirus neutralization [48]: > 50 µg/mL
IC50 [49]: > 50 µg/mL
